Assay results as given in patent US20260151494A1 (ARO BIOTHERAPEUTICS, published 2026).
Changes are numbered by the printed parent chain.

B1: CD71-binding FN3 domain of SEQ ID NO: 536 (designed binder)
chain: MLPAPKNLVVSRVTEDSARLSWTAPDAAFDSFDIGYTETVSFGEAIVLTVPGSERSYDLTGLKPGTEYIVKILGVKGGFASFPLSAIFTT
B2: CD71-binding FN3 domain of SEQ ID NO: 519 (designed binder)
chain: MLPAPKNLVVSRVTEDSARLSWTAPDAAFDSFPIAYPEHLPPGEAIVLTVPGSERSYDLTGLKPGTEYPVNIRGVKGGFVSFPLSAIFTT
B3: CD71-binding FN3 domain of SEQ ID NO: 480 (designed binder)
chain: MLPAPKNLVVSRVTEDSARLSWTAPDAAFDSFEIDYAEDIREGEAIALVVPGSERSYDLTGLKPGTEYWVSIGGVKGGTWSRPLFAPFTT
B4: CD71-binding FN3 domain of SEQ ID NO: 484 (designed binder)
chain: MLPAPKNLVVSRVTEDSARLSWTAPDAAFDSFEIAYQELSLWGEAIVLTVPGSERSYDLTGLKPGTEYYVHIGGVKGGIWSSPLSAISTT
B5: CD71-binding FN3 domain of SEQ ID NO: 532 (designed binder)
chain: MLPAPKNLVVSRVTEDSARLSWTAPDAAFDSFDINYDELSGEGEAIALFVPGSERSYDLTGLKPGTEYWVSIGGVKGGRFSEPLYARFTT
B6: CD71-binding FN3 domain of SEQ ID NO: 510 (designed binder)
chain: MLPAPKNLVVSRVTEDSARLSWTAPDAAFDSFFIAYGESPESGEAIVLTVPGSERSYDLTGLKPGTEYLVWIAGVKGGYYSDPLSAIFTT
B7: CD71-binding FN3 domain of SEQ ID NO: 488 (designed binder)
chain: MLPAPKNLVVSRVTEDSARLSWTAPDAAFDSFIIQYGEYLRWGEAIVLTVPGSERSYDLTGLKPGTEYQVEIYGVKGGPLSKPLSAIFTT
B8: CD71-binding FN3 domain of SEQ ID NO: 489 (designed binder)
chain: MLAPKNLVVSRVTEDSARLSWTAPDAAFDSFFIGYLEPQPPGEAISLLVPGSERSYDLTGLKPGTEYNVTIQGVKGGFPSSPLLAGFTT
B9: CD71-binding FN3 domain of SEQ ID NO: 495 (designed binder)
chain: MLPAPKNLVVSRVTEDSARLSWTAPDAAFDSFFINYREDKWIGEAIVLTVPGSERSYDLTGLKPGTEYSVPIDGVKGGAASPPLSAIFTT
B10: CD71-binding FN3 domain of SEQ ID NO: 509 (designed binder)
chain: MLPAPKNLVVSRVTEDSARLSWTAPDAAFDSFEIGYWENAYKGEAIVLTVPGSERSYDLTGLKPGTEYEVFIGGVKGGVWSVPLSAIFTT
B11: CD71-binding FN3 domain of SEQ ID NO: 506 (designed binder)
chain: B10 chain with E69V, F88S
B12: CD71-binding FN3 domain of SEQ ID NO: 537 (designed binder)
chain: B10 chain with W37F, A40L, K42L, E69W, F71Q, V79N, V82A
B13: CD71-binding FN3 domain of SEQ ID NO: 531 (designed binder)
chain: B10 chain with W37F, N39Y, A40S, K42Y, E69R, F71Y, V79G, V82R
B14: CD71-binding FN3 domain of SEQ ID NO: 503 (designed binder)
chain: MLPAPKNLVVSRVTEDSARLSWTAPDAAFDSFEISYFETSWHGEAIVLTVLGSERSYDLTGLKPGTEYRVYIGGVKGGSWSQPLSAIFTT
B15: CD71-binding FN3 domain of SEQ ID NO: 120 (designed binder)
chain: MSLPAPKNLVVSRVTEDSARLSWTAPDAAFDSFEIAYQELSLWGEAIVLTVPGSERSYDLTGLKPGTEYWVQIGGVKGGEWSAPLSAIFTT
B16: CD71-binding FN3 domain of SEQ ID NO: 124 (designed binder)
chain: B15 chain with T15I, A36G, Q38F, L40N, S41L, L42Y, W43L, E80N
B17: CD71-binding FN3 domain of SEQ ID NO: 139 (designed binder)
chain: B15 chain with A36G, Q38F, L40N, S41L, L42Y, W43L, E80A, W81Y, A83T
B18: CD71-binding FN3 domain of SEQ ID NO: 122 (designed binder)
chain: MSLPAPKNLVVSRVTEDSARPSWTAPDAAFDSFEIGYFENLYLGEAIVLTVPGSERSYDLTGLKPGTEYYVHIGGVKGGIWSSPLSAYFTT
B19: CD71-binding FN3 domain of SEQ ID NO: 130 (designed binder)
chain: B15 chain with Q38F, L40R, S41T, L42W, W43F, E80D
B20: CD71-binding FN3 domain of SEQ ID NO: 131 (designed binder)
chain: B15 chain with Q38F, L40N, S41D, L42W, W43A, W70V, Q72F, E80D, W81F, A83P
B21: CD71-binding FN3 domain of SEQ ID NO: 132 (designed binder)
chain: B18 chain with P21L, Y70W, H72Q, G79V, I80N, S83A, Y88I
B22: CD71-binding FN3 domain of SEQ ID NO: 141 (designed binder)
chain: B18 chain with P21L, Y70W, H72Q, I80N, S83A
B23: CD71-binding FN3 domain of SEQ ID NO: 126 (designed binder)
chain: B15 chain with A29V, W70Y, Q72H, E80I, A83S, I88Y
B24: CD71-binding FN3 domain of SEQ ID NO: 119 (designed binder)
chain: MSLPAPKNLVVSRVTEDSARLSWTAPDAAFDSFFIGYLEPQPPGEAIELYVPGSERSYDLTGLKPGTEYNVTIQGVKGGFPSDPLVAFFTT

Molecular target: T1, apical domain of human CD71 (human, UniProt P02786 189-383, limits assumed)
T1 construct: domain: apical domain; Screen 4 panned on human apical domains, the ELISA text says only 'apical domain'
T1 sequence (P02786 189-383 limits assumed): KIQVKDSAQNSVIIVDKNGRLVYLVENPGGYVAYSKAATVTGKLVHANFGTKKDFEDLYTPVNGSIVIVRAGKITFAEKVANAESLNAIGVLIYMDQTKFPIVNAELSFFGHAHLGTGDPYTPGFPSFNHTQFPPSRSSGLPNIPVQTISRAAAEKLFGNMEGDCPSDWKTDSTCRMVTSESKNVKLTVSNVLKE
Test: primary ELISA, RLU over HSA

| Binder | Apical domain:HSA |
| --- | --- |
| B1 | 154 |
| B2 | 253 |
| B3 | 181 |
| B4 | 113 |
| B5 | 197 |
| B6 | 404 |
| B7 | 103 |
| B8 | 340 |
| B9 | 504 |
| B10 | 353 |
| B11 | 112 |
| B12 | 50 |
| B13 | 586 |
| B14 | 145 |

Molecular target: T2, human CD71 extracellular domain (human, UniProt P02786 89-760, biotinylated)
T2 construct: also called hCD71; CD71-ECD
T2 sequence (P02786 89-760): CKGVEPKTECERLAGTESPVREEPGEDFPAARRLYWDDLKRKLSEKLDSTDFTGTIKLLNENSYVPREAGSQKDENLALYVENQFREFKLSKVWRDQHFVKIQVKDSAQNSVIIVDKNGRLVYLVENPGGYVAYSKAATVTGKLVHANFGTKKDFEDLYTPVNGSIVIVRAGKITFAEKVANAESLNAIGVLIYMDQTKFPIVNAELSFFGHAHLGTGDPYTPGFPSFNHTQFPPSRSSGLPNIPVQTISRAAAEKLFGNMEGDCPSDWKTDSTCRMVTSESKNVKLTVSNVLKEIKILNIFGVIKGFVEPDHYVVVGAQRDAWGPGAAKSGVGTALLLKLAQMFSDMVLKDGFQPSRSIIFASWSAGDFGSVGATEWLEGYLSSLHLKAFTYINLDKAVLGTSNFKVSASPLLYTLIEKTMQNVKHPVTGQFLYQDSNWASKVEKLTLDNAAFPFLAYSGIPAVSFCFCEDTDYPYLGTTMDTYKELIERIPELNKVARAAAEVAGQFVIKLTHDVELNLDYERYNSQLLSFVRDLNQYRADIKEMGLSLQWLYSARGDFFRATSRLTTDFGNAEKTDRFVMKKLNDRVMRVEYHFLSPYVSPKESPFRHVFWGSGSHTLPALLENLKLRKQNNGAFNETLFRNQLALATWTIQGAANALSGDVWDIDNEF
Test: primary ELISA, RLU over HSA

| Binder | hCD71:HSA |
| --- | --- |
| B1 | 141 |
| B2 | 156 |
| B3 | 70 |
| B4 | 35 |
| B5 | 62 |
| B6 | 263 |
| B7 | 53 |
| B8 | 235 |
| B9 | 142 |
| B10 | 134 |
| B11 | 39 |
| B12 | 23 |
| B13 | 226 |
| B14 | 150 |

Molecular target: T1, apical domain of human CD71
Test: primary ELISA; further: test concentration or dose not given here

| Binder | RLU |
| --- | --- |
| B1 | 3.26e+06 RLU |
| B2 | 5.24e+06 RLU |
| B3 | 4.27e+06 RLU |
| B4 | 4.69e+06 RLU |
| B5 | 4.59e+06 RLU |
| B6 | 5.21e+06 RLU |
| B7 | 6.14e+06 RLU |
| B8 | 4.06e+06 RLU |
| B9 | 4.03e+06 RLU |
| B10 | 4.6e+06 RLU |
| B11 | 4.74e+06 RLU |
| B12 | 5.14e+06 RLU |
| B13 | 4.16e+06 RLU |
| B14 | 2.26e+06 RLU |

Molecular target: T2, human CD71 extracellular domain
Test: primary ELISA; further: test concentration or dose not given here

| Binder | RLU |
| --- | --- |
| B1 | 2.99e+06 RLU |
| B2 | 3.24e+06 RLU |
| B3 | 1.66e+06 RLU |
| B4 | 1.47e+06 RLU |
| B5 | 1.45e+06 RLU |
| B6 | 3.39e+06 RLU |
| B7 | 3.18e+06 RLU |
| B8 | 2.81e+06 RLU |
| B9 | 1.14e+06 RLU |
| B10 | 1.74e+06 RLU |
| B11 | 1.64e+06 RLU |
| B12 | 2.42e+06 RLU |
| B13 | 1.6e+06 RLU |
| B14 | 2.35e+06 RLU |

Molecular target: T3, human CD71 extracellular domain (human, UniProt P02786 89-760)
T3 construct: also called hCD71; human CD71-ECD
T3 sequence (P02786 89-760): as above
Test: primary ELISA, signal ratio to HSA

| Binder | hCD71:HSA |
| --- | --- |
| B15 | 443 |
| B16 | 43 |
| B17 | 409 |
| B18 | 105 |
| B19 | 147 |
| B20 | 101 |
| B21 | 142 |
| B22 | 192 |
| B23 | 227 |
| B24 | 441 |

Molecular target: T4, apical domain of cynomolgus CD71 (cynomolgus, UniProt A0A2K5X958 189-383)
T4 construct: domain: apical domain; also called Cyno apical domain
T4 sequence (A0A2K5X958 entry or part of it): as the sequence (P02786 189-383 limits assumed) above, with R20G, Y59D, T60S, N104K, E106D, R137Q, R176K, S182N, N184S counted along it
Test: primary ELISA, signal ratio to HSA

| Binder | Cyno apical domain:HSA |
| --- | --- |
| B15 | 534 |
| B16 | 42 |
| B17 | 496 |
| B18 | 80 |
| B19 | 196 |
| B20 | 145 |
| B21 | 201 |
| B22 | 245 |
| B23 | 382 |
| B24 | 394 |

Molecular target: T3, human CD71 extracellular domain
Test: primary ELISA; further: test concentration or dose not given here

| Binder | RLU |
| --- | --- |
| B15 | 4.26e+06 RLU |
| B16 | 5.01e+06 RLU |
| B17 | 3.7e+06 RLU |
| B18 | 5.5e+06 RLU |
| B19 | 3.76e+06 RLU |
| B20 | 3.35e+06 RLU |
| B21 | 3.63e+06 RLU |
| B22 | 4.22e+06 RLU |
| B23 | 3.13e+06 RLU |
| B24 | 7.04e+06 RLU |

Molecular target: T4, apical domain of cynomolgus CD71
Test: primary ELISA; further: test concentration or dose not given here

| Binder | RLU |
| --- | --- |
| B15 | 5.13e+06 RLU |
| B16 | 4.89e+06 RLU |
| B17 | 4.49e+06 RLU |
| B18 | 4.2e+06 RLU |
| B19 | 5e+06 RLU |
| B20 | 4.81e+06 RLU |
| B21 | 5.15e+06 RLU |
| B22 | 5.4e+06 RLU |
| B23 | 5.27e+06 RLU |
| B24 | 6.29e+06 RLU |
